Laboratory results from patent US20220332804A1 (CSL INNOVATION, published 2022).

What was measured:
Test in all cases: SPR; KD relative to WT C2;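 also: biacore SPR at 37 °C, anti-C2 mAbs captured on an anti-human IgG chip, alanine or serine C2 surface mutants tested, KD from 1:1 fit compared with wild-type C2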
human C2 S278A = molecular target: T1, human C2 S278A (human, UniProt P06681 21-752)
T1 sequence: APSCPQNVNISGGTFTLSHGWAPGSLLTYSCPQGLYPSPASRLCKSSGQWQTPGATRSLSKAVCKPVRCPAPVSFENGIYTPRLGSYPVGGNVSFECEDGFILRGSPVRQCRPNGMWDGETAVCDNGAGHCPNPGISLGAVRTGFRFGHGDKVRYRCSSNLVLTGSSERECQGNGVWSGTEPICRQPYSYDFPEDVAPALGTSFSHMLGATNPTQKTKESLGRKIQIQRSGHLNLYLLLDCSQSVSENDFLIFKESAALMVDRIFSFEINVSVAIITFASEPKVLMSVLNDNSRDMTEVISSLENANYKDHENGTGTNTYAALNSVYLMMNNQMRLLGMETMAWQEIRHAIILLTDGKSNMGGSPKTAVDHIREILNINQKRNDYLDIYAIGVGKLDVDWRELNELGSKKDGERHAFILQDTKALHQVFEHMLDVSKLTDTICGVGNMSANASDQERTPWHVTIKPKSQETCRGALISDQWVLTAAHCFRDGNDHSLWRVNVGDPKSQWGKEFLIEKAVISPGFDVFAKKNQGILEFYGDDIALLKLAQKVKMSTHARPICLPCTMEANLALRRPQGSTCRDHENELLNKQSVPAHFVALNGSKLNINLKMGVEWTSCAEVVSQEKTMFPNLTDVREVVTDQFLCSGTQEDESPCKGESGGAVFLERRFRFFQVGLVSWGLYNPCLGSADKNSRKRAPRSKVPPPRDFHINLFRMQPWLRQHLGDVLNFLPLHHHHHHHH

human C2 D404A = molecular target: T2, human C2 D404A (human, UniProt P06681 21-752)
T2 sequence: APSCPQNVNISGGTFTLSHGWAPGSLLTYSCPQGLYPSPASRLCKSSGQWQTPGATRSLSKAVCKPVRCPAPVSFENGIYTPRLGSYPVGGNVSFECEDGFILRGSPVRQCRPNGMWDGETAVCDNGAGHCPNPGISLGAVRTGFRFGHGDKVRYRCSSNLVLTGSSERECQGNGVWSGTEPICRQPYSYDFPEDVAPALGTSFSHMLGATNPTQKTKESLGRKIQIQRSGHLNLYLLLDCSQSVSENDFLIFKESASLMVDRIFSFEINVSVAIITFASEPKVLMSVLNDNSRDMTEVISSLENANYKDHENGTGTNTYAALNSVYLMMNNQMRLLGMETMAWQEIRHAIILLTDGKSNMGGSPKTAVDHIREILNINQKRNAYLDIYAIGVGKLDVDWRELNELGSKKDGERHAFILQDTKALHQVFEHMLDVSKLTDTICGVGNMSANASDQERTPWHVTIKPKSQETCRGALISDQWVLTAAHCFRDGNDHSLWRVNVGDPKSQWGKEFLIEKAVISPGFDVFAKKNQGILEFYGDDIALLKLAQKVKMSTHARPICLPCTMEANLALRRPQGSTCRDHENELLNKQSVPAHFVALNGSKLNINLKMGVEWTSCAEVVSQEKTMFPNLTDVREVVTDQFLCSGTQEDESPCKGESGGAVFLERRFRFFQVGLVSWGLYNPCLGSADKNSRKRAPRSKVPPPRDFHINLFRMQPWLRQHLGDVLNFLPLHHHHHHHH

human C2 D454A = molecular target: T3, human C2 D454A (human, UniProt P06681 21-752)
T3 sequence: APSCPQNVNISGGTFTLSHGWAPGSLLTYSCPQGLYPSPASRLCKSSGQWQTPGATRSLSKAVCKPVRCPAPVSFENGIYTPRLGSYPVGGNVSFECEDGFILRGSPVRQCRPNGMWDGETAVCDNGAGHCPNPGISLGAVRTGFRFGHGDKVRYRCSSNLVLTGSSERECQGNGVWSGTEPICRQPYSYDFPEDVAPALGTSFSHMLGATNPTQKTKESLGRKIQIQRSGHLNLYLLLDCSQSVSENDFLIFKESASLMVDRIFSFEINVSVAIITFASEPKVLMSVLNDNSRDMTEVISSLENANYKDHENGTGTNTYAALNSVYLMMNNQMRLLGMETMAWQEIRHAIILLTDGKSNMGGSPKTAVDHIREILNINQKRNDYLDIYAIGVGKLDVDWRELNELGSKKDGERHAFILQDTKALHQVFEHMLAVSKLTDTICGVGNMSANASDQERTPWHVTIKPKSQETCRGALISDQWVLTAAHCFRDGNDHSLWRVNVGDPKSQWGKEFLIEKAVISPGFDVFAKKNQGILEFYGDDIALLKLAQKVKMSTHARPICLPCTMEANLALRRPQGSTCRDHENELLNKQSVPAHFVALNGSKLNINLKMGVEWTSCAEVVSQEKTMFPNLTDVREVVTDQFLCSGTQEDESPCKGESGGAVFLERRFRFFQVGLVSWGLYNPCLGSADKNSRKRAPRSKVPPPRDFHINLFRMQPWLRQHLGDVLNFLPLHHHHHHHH

human C2 N467A = molecular target: T4, human C2 N467A (human, UniProt P06681 21-752)
T4 sequence: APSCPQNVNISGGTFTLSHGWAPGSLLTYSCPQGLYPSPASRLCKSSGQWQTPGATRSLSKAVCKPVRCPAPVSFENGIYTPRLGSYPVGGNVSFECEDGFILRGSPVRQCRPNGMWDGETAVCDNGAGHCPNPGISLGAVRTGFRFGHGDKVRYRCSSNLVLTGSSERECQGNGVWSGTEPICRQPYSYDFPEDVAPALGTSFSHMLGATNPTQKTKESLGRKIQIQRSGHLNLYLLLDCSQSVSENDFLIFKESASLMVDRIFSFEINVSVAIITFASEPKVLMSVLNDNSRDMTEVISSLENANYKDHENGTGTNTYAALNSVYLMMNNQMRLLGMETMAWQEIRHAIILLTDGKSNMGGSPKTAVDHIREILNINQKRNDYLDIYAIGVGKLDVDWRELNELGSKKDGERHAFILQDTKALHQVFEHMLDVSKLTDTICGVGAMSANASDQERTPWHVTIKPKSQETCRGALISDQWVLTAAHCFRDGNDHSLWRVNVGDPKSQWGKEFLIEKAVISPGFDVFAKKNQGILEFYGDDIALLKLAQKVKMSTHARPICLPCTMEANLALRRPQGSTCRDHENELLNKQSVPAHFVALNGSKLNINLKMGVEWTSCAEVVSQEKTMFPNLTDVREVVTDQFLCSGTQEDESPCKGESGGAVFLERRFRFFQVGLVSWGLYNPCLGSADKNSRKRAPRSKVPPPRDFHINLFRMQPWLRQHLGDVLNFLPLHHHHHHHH

B1: RF16-214 (antibody, V domains shown)
VH: EVQLLESGGGLVQPGGSLRLSCAASGFTFSWYQMMWVRQAPGKGLEWVSRIYPSGGGTAYADSVKGRFTISRDNSKNTLYLQMNSLRAEDTAVYYCARDAGYGDNWGQGTLVTVSS
VL: QSALTQPPSVSVSPGQTASITCSGDKLGEKYASWYQQKAGQSPVMVIYQDRKRPSGIPERFSGSNSGNTATLTISGTQAMDEADYYCQAWDTRAVVFGGGTKLTVLG
Fold diff (human C2 S278A): 1 fold | Fold diff (human C2 D404A): 3 fold | Fold diff (human C2 D454A): 4 fold | Fold diff (human C2 N467A): 2 fold
